Reference: the RNAGym collection of RNA variant scans (doi:10.1073/pnas.2313332121)

B1: TPR t1 (parent)
chain: GACCAAUCUGCCCUCAGAGCUCGAGAACAUCUUCGGAUGCAGAGGAGGCAGGCUUCGGUGGCGCGAUAGCGCCAACGUCCUCAACCUCCAAUGCAUCCCACCACAUGAUGAUGCCUGAAGAGCCUUGGUUUUUUG

Variants of: B1
Test: polymerase ribozyme fitness, log enrichment relative to wild type (log ratio); higher = more active; in vitro selection for triplet polymerase activity
In short: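 Both subunits of a heterodimeric triplet polymerase ribozyme were given their own mutant library, built by PCR and transcribed. Each library was annealed with a biotinylated primer, the partner subunit and triplets, incubated frozen at −7 °C, and its extended constructs gel-excised, captured on streptavidin beads and amplified by RT-PCR, all in one round done in triplicate. Fitness is the logarithm of genotype enrichment relative to wild-type enrichment, with replicates averaged by inverse-variance weighting. That logarithm is base 2, and Illumina-sequenced genotypes needed ≥10 input reads and ≥1 read per output.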

Row | Variant | polymerase ribozyme fitness (log ratio)
1 | G57U U78A C80U | -0.707
2 | U9G A66U C80A C85U | -5.32
3 | C12G C40A A50C C80A A84C C104U | -3.24
4 | C85U G113C C114A | -5.96
5 | U55A C73U C86G C99U | -4.02
6 | A6C C82U | -0.547
7 | C11U C13U G44C C86G U116C U132C | -1.99
8 | G52C C53G G120U | -2.13
9 | C4G C8U C12A G42A G71A U106A U112G | -4.39
10 | C28G G48U | -3.56
11 | U7G G65U | -5.58
12 | C99U A121G | -0.804
13 | C11U A26U C49G | -3.4
14 | G10U U106A | 0.263
15 | C12U G128A | -1.59
16 | G58C G60C A111U | -3.12
17 | C40A G52A G60A U81C A95U | -3.45
18 | C82U U112A | 1.08
19 | A26U A50C C56A C124A | -2.3
20 | A16U A29U U54A G63U | -3.53
21 | A68G C73U | -2.42
22 | C13U G17A A43C U59C U132C | -4.55
23 | C8G C12A C28G A29G G48U A68U C114A U125G | -6.52
24 | C20U U129A | -2.67

Row | Variant | polymerase ribozyme fitness (log ratio)
25 | A46U G93U | -2.06
26 | C4U A41U | -1.8
27 | C20A A66G | -4.25
28 | C40A C102U | -3.15
29 | A46U U96A | -1.81
30 | C12G C15U | -0.505
31 | G44A C101U | -1.1
32 | U14C G63C U112G G113U | -5.75
33 | A16G C40A C86U A90U A91C U106A U112G | -4.19
34 | C34G U87A | -5.65
35 | C8G A50C C72A G93A | -0.538
36 | U109C C114U | -4.7
37 | G47C C64U | -2.48
38 | A27U G69U | -1.45
39 | C12G C72A C104U C123U C124A | 1.79
40 | C70U C72G C115U G117A | -5.53
41 | G110A U112C G117A | -4.79
42 | C94A U112C U126G | -0.847
43 | G69C G71U C97A A108C U109A | -5.19
44 | G57A C73U U78A C99U G128C | -6.66
45 | A46U G117C | -1.89
46 | U87C C89G | -1.1
47 | C22G A29U G69C C89A G110U | -5.19
48 | A66U C73U A83U A100U C123U U125G | -2.19

Row | Variant | polymerase ribozyme fitness (log ratio)
49 | C12U G39U G63U G77C | -3.85
50 | G63C C89U | -1.31
51 | A46U C97A C99G G117C | -7.9
52 | C64U G127C | -1.82
53 | G39A A84U | -1.22
54 | G47U C62G | -3.76
55 | A46C U109C | -6.47
56 | G45U C49A U59C C97G | -5.1
57 | C22G G57C C89A A95G A111U A121U | -4.42
58 | A26U U54C | -2.99
59 | U106G G117C | -1.59
60 | G19A C101U | -3.3
61 | A29U C70G | -3.31
62 | A41U G113U | -3.98
63 | G117C U131A | -4.01
64 | C11G G113A U133A | -1.34
65 | A6U G51U C70U C80U G93U | -5.12
66 | C62A C101A | -2.84
67 | C20U | -1.26
68 | A2C A50U | -2.44
69 | C62U C64U | -0.305
70 | G69C C72U | -0.189
71 | C31G C70U C82G G117C | -7.1
72 | G57U C82G G110U | -2.25

Row | Variant | polymerase ribozyme fitness (log ratio)
73 | A6C U9A C15G G45A C62U C104A C124G | -3.99
74 | G47C A100U | -2.4
75 | A5U C12U A18G C80U C114U | -4.01
76 | A43G G44U A46U | -2.25
77 | U30A C104U A121C | -4.08
78 | G63U A90U | -3.53
79 | A16U C73U G93C U96A | -4.76
80 | C12U G25A G93C G120C | -7.38
81 | C31U G36U C73U C82A C86G G113U U133A | -6.04
82 | A6C U38A A43U | -3.16
83 | C49A C56U G120C U131G | 1.43
84 | A37G C49G C82U | -0.637
85 | C20U G110U | -3.13
86 | C76U A111U | -3.86
87 | C88U G120U U126G | -3.22
88 | A6C U131A | -0.317
89 | A6C C11U G69A A91C | -6.12
90 | G10A A90C A121C | 0.254
91 | C13A G71A | -0.843
92 | G117A U125A | -3.14
93 | G42A G69C C124U | -2.56
94 | G51A C86A | -2.78
95 | C34A C97A C115G | -4.43
96 | G44C C76U U81G | -5.45

Row | Variant | polymerase ribozyme fitness (log ratio)
97 | C64A U78C C123U | -4.49
98 | C4A A18G C89A A100C G113A C124U | -4.48
99 | C70G A111U | -5.55
100 | G60U G120U | 0.205
101 | A29U A46G C115G | -2.96
102 | C12A A27G G93A | -5.16
103 | G39A A95G C115A | -0.556
104 | A24U A27U C28U G36U A111U | -5.92
105 | G39U U92A G110U U132A | -5.12
106 | C89A G113C | -1.8
107 | C12G C22G | -3.07
108 | C49U C85A | -2.47
109 | G19A C72U A75U C114A | -2.05
110 | U9A C13G A16U A41U | -1.62
111 | A6C | -0.236
112 | C49U C76G G113A | -1.81
113 | G17U G61C | -3.76
114 | G63A G93U C98U A121G | -0.418
115 | C40U C94U | -1.54
116 | C99A C102A U109A G127C | -6.24
117 | C34U A83C | -5.74
118 | C4U C12G C15G G117C | 0.829
119 | C8A G45C | 0.366
120 | C56A A66G A75G | -0.927

Row | Variant | polymerase ribozyme fitness (log ratio)
121 | G51U C80U C88A A119G | -1.11
122 | G47U C49U C62U G117U | -5.19
123 | A41C G48U A111C | -3.12
124 | G10C U38C C40U C64U C101A | -1.8
125 | G44U G71C | -2.58
126 | A41U A83C G110A | -4
127 | A2U C40U C115A U133G | -2.75
128 | C4G G61U G93A | -2.57
129 | C11G G48U G61A C73A A90G | -2.19
130 | A43U C70U | -2.1
131 | G10U C94U C101A C104A | -3.21
132 | G10C C56U G117C | -4.57
133 | C11G C22U G44U | -4.93
134 | U21G C73U | -1.84
135 | A27C U78A | -3.62
136 | C15A C85G | -3.35
137 | C12U U54A A91C C115U | -0.811
138 | G35U C72A | -5.07
139 | C20A G63A C94A U112A | -2.57
140 | A41C C56G A74C | -5.29
141 | U54A C72U C102G U112G | -5.88
142 | C11A A41U G45C | -3.39
143 | A6G C8A U9G | 0.0967
144 | C34G C99U U130A | -4.6

Row | Variant | polymerase ribozyme fitness (log ratio)
145 | C56U G65C | -5.42
146 | C13A C88A | -2.19
147 | A27U C104U A111C G120C | -6.95
148 | C8G A103U | -3.34
149 | C89G C123G | 0.45
150 | G39U C53A G63U U126A | -5.66
151 | G39A G60C G113C C115A | -4.37
152 | C8U G47C C62U | -1.51
153 | C49A C62G | -2.22
154 | C8A G45C G58A C97G U106A | -3.12
155 | U7G C72U C115U | 0.671
156 | G42U A50G G57C G61U C80A C82A G120A | -4.58
157 | G61A A90G G128U | -1.55
158 | G60U G117U | -1.65
159 | G36U C72G | -1.68
160 | G25U A37U C40U G44U G47C C64A U106G U112A | -6.12
161 | A18U G60U | -1.19
162 | U87G U109A | -3.08
163 | A5C C79U C104A | -2.03
164 | A6G G47A C53U U59C | -1.37
165 | A50C C53U G57A U96A G117A U132A | -5.61
166 | A43G C73G U78A A111G | -3.33
167 | G52C U129C | -1.64
